Test results published in the DeepSol protein solubility set.

Assay: soluble on expression in E. coli; label from the status in PepcDB or PDB records

Sequence	soluble on expression in E. coli
MDGFQLGNNSPKEITVFCDESRPEALRAASITQRYLCIGSIWVDRERVREVNEEIRALQIKYSKMGEVKWGKVSPSSIQFNCELIDLFFDERFNLQFRAIVVDNQKVDLSYHNNDQELGFYKFYYQMLKHKLINGCSYRIYCDLKTNKMRGRASTLEHYLQTYCLGSVEMVQLLPSNDLPLMQLTDLLLGAVSTKFNFRIPKSPAKNEVISTIERHIGHQIQPTRKNEQKFNVFCIEPGMGR	not soluble
MDGKLLWSFNSGDAVRSVAISRDGDYVATGSANNYVYLLDSEGKTLWGKKTGSLINSVTMTPNAYYVAAGGSNYNVYLFDRKGEFSWMHNPGYWVSSVSLSSNGSHLAAGSFDDRIYLFNLTGAKLWDYQVKDDVYAVEIAPDSSFIAAGSWDDSIYALNMSGKELEHHHHHH	not soluble
MDGKRVWLSDDELTRFIEQAETPHQRLAFLLAGRVGLRRSEIIEVCPQDLVDGPTGDHIRVWESYAKRDKYREPPVPQEVVTIAETLAYQQDDDEPLLDVAGSTVYRWVRRAADELEEETGDRGWQYLDVHDLRRTWGTYLLEQGVIPSVVMSFGGWEDWDTFRKHYLGLEHHHHHH	not soluble
MDGYTGSHVVRCALRLAPLVFVRPGELRKAEWKDIDLDGGEWRYTVTKTNTPHIVPLSTQAVEILKELQALTGRSRFVFPGARTNGRPMSDNAILAALRRMGIDKEEMSGHGFRAMARTILDEVLGVRPDFIEHQLAHSVRDPLEHHHHHH	not soluble
MDHDTEVIVKDFNSILEELTFNSRPIITTLTKLAEENISCAQYFVDAIESRIEKCMPKQKLYAFYALDSICKNVGSPYTIYFSRNLFNLYKRTYLLVDNTTRTKLINMFKLWLNPNDTGLPLFEGSALEKIEQFLIKASAAALE	soluble
MDIILGIRVQDSVILASSKAVTRGISVLKDSDDKTRQLSPHTLMSFAGEAGDTVQFAEYIQANIQLYSIREDYELSPQAVSSFVRQELAKSIRSRRPYQVNVLIGGYDKKKNKPELYQIDYLGTKVELPYGAHGYSGFYTFSLLDHHYRPDMTTEEGLDLLKLCVQELEKRMPMDFKGVIVKIVDKDGIRQVDDFQAQ	soluble
MDIKAMGYVVIPRLPFKEFRDEKIYDHLFKRAEYRPNQELELGQTIIKVVELAKDFNWSAAQIKYSLDRMEKQGYIKLHRLPQKRGLIVTILHYADYIQLGNYMKNKALEPAQIEHQEVDDKMKNAFELYENKVARSVGPMEAQRIGYMVDDYGEEKVMEAIKTAFQLKGKAASLSYVQAILSNPFTQKRKEKQYGYKQSSQYRHRISNDHAGTSGKVSPLFGNKTGRIRRKG	not soluble
MDIKELHVKTVKRGENVTMECSMSKVTNKNNLAWYRQSFGKVPQYFVRYYSSNSGYKFAEGFKDSRFSMTVNDQKFDLNIIGAREDDGGEYFCGEVEGIIIKFTSGTRLQFEGSNEGSKSSDGEGSSCPDQMHVLVW	soluble
MDIKKFVARRKALQISQIKLSAGICTQATLSKFERRGRVPSLAILEQLCARLGLTVDELNEDQASSVTQMRQELDHIERQLMMEDYQVVLQALNRIAVSEIAAVPLRMQYYYLSGLLKSLINGAVSDVCFDFDQILDDLDQTHETVFTPLAYVGLGVMYSRLSELAKAQFYFEKVHQAVKQALVNGDDQDYLRLLTMIFYTAEYEATREDFTTSNGLINDGVSLCSEQHVTYYLPRLKYLATANAIQQCQPDEQIQQLLSETVAFARINHNQVVEVKAAALRRRYLQARKHA	not soluble
MDILLTLLDDKTSVASDWRILGIISLRGSTPRLAILLQVVQWAAFYCWRNYMSPYKDKRWRSKRDTALRRDKYECRNCKRFGITTTATVVHHVWFLRDYPKWWLCLWNLISLCEKCHNKMHNRDSDIPTELGEYWQDKIKPPTSATKKYFLEHHHHHH	not soluble
MDISIEFGLYPTESDLTELQQYFPDTNLKKLYEVEAYHKKLETILDSEFSTERESLIAEIDELESQLTTLNQELQELGNIPNLSSEYLENYSKLTATINALKEQNEAYLKESGLSKEKSETDADLKRSTEDILLDLEVKINSKMREVNNILYPDIRKAPQINLNAHNSYSFYTPDDDGTGTKFKGMIVFDLVMLYLTNLPALAHDSLLLSNVSYQATEALLKLYDQSRSLNKQVFLVFDKASSYSPDANQLLSENTVLRLSSNGNELYGISWNKGENSDEI	not soluble
MDKADLYEKNQSRKDILNYYREEDKDFEQYLNFRENRKMLQQAFESGTLIRKQNYRARIHERMVEQPVTEKKELLRSR	not soluble
MDKIRYGIMSTAQIVPRFVAGLRESAQAEVRGIASRRLENAQKMAKELAIPVAYGSYEELCKDETIDIIYIPTYNQGHYSAAKLALSQGKPVLLEKPFTLNAAEAEELFAIAQEQGVFLMEAQKSVFLPITQKVKATIQEGGLGEILWVQSVTAYPNVDHIPWFYSREAGGGALHGSGSYPLQYLQYVLGKEIQEVTGTATYQQGATDSQCNLALKFAEGTLGNIFINVGLKIPSEMTICGTKGQIVIPNFWKTDCAYYTDAQGNTVKWSEQFTSEFTYEINHVNQCLQDKKLTSPVMTKELTIATVKIVESFYQEWFDNE	not soluble
MDKLKIIMEKGTERLKRGFAKMVKGGVIMDVTNAEQARIAEEAGAVAVMALHKVPADIRKAGGVARMAPVEKIQEIMDAVTIPVMAKCRIGHEAEARILEALGVDMIDESEVLTPADPFFHIYKKKFTAPFVCGARNLGEAVRRIWEGAAMIRTKGEAGTGNIIEAVRHVRLVNENIRLIQRMTDEEIYGVAEKFAEPYLRLAFSVKEISGLPKRVLENEPIYEGFTYREIVEDIYKILLEIKKLGRLPVVNFAAGGVATPADAALMMAMGMDGVFVGSGIFKSSNPPKMARAIVEAVNHWDEPDVLAEISREIGEPMRGQAIEELQVRMEERGILEHHHHHH	not soluble
MDKNWMIAMHNPATIYNPNAQTEFVEFPIYTVLIDHPEGKILFDTACNPNSMGPQGRWAEVTQQMFPWNASEECYLHNRLEQLKVRPEDIRYVVASHLHLDHAGCLEMFTNATIIVHEDEFNGALQCYARNQKEGAYIWADIDAWIKNNLQWRTVKRHEDNILLAEGVRVLNFGSGHAWGMLGLHVELPETGKIILASDAIYTAENYGPPVKPPGIIYDSLGYVNTVERIRRIAQETNSKIWFGHDAEQFKQFRKSTEGYYE	not soluble
MDKVLNREESLQLMDLLGLERSAWGNIPLMRKAYLKKCKEFHPDKGGDEEKMKKMNTLYKKMEDGVKYAHQPDFGGFWDATEVFASSLNPGVDAIYCKQWPECVKKMSTNCICLLCLLRMKHENRKLYRKDPLVWVDCYCFDCFRMWFGLDLCEGTLLLWCDIIGQTTYRDLKL	soluble
MDLEPIFLTPVFQERIWGGTKLAERFGYDIPSSQTGECWAVSAHPHGQTVVARGPFAGMTLGQLWEERRDLFGHFPSDRFPLLTKILDANADLSVQVHPDDEYAKTHEGGELGKTECWYIIDCKPGAKLIYGHYAETKGELRAMMEAGEWDRLLRKVPIRPGDFFYVPSGTIHALCEGTLVLETQQSSDTTYRVYDYDRVDSQGRKRELHLEKAIDVTTVPHRDIDVHPHVAEFPGATVTTFVEGDYFGVQKWDVHDAFASEQTKPFLIVSILKGEGELVHHERIYAIRQGDHFILPHQFGRFTIRGMLEAIASWPRAGK	not soluble
MDMKRRIHLELRNRTPAAVRELVLDNCKSNDGKIEGLTAEFVNLEFLSLINVGLISVSNLPKLPKLKKLELSENRIFGGLDMLAEKLPNLTHLNLSGNKLKDISTLEPLKKLECLKSLDLFNCEVTNLNDYRESVFKLLPQLTYLDGYDREDQEAPDSDAEVDGVDEEEEDEEGEDEEDEDDEDGEEEEFDEEDDEDEDVEGDEDDDEVSEEEEEFGLDEEDEDEDEDEEEEEGGKGEKRKRETDDEGEDD	soluble
MDNNVEDKKEAMLKRLANRHEKRLLDQVKSNTKKIDLRATERAFLESSPTSMNMRTPLNPSISSSVSDSPILSYDEKANKQIIALATWCNTMMELDVSEEMDLGESKAEACRNIQKMLKKRSDTSEVENTQENARRRYQRIFEKNDPEVVKKKCKQLLDDSGMDASIKDLLSKNNVAIRKEHAVYNDIGLQTTLLHTFLSFHPAWLKTALEAIFNTRIDAQPKHLMKKLSQFFLDLVFSNPTMLKNKKFAQGSGKPIITEAGKEALHKHFLSVSMKLMFLIETAHTHRVIPNLTRIFTKSSHFNCLDDVFSELTKELLTGSSATFKKAFAKVGFIPTYRQSFIENYDYQAKGFSDFSDGLILAKLLETVGEMPHGQILLKLRDPAGDRIRKIGNVKIVLQEMSSLGVPTDNVNAESIVGGKKDEILSILWAIIGVRVAKEQRIKVTRVSEERTPKKRRSAVHDDMSSEVLKMCKIYGRQMEIEVMDLDSLSDGCLLAKLWTTFGTNSTPIQDYDGLSLWEKVVSVAELELCIQRGLDQNMALFVKMFLERLGMIQDLNEKATKIQRMWKAYVQRKNTPKLYFIVQQLLADSSIPRNRSVSPFSNNVTFTVPRTPRNNILTERPSLSQIPSSRQSMDSTFNDATFTVSRDSIESMNKMQKTPLRGTFTRKTIAMVIEEEDDSENNETVVPSTLKKRTVVRMEHNAEVFREQDEDDENQDKDTVAPSAENLDSPPSDIPLETLSSIPSASQSAIFLQDSETGKEMHVPKAEDVGVVVLEASDSPVALEGNNEASYDGQKIENLETFEIKEGKTQEDLPSKSPMDPTQTSGSPLVEFRMTEEQERLEMLFQSLSEDQKNFVKTNNLSVSIEDDANTPELRRILRQTRELKRKQQEIARKLGNIERNALAVRDGGEDSSDSRSDAGHDVAILHGDDSQLFENSMQLDQKSQLQNDETQILENKKKAAVVIQKMIRGFIARRKFQMEISNIRNRMIQYNHILAQEDEQIGIEEMEDKSVEAKLKKCALHGLTNDNLHVVHVAATVIDRVTDLVPSLLEKLVVELNGIKSITDVLIVADRGFSYTSILHPLLNVLEKLFTKIPEEVTNSHILPHLKILSPRLMLLMLKHSEVKELFIPIINTLTSIARRFPDKKQSSFSSSSYSIKQSLKKVKDQECRNKLVRLESICEDML	not soluble
MDNRIPSALTTSVKSPKTPSGIPFLIRERDVIKAILEFLEIRGLHITQLSLEREAGVINGAFSDDLLFLRQLILDGQWDNALDFVEPLKPVNEFDFGAFRYNITKYKFFELLCVKLEPGPLHDNDFAVEELVECLKDLEHICPTPEDYRHLCALLTLPKLSDHEDFKNWNPSSARVECFNKVNQLCGHLLPPTGKEKDRGDDANSSNDRLTGLITKGRFYEGCVDYCQAQAIGDKRGIDAGPMPSEMLTFRPKLGSADLSLVCWLEMVGKEQFSMPFKQKQLELKVDHIRKPKLEAPWTETIMATPIKPGGQFPHNLVPSSKLKFAEKMSQSMTMSMLPPADLTTSMFPSVPRGHPMSQSTAAGFCLGTAITEADAMAQSLLIDEMMESSQLARTSRPDTLRGVGMMMTGDTIVPVQPAQVMINAPSQLSSQMMSMSMAPQVMAPIAPMAQNMINYDFAPVRRQLDEMARRSLPPSRLPTVPELGSPAVNSHHEENLMTQSRLFQQFSAAKQINEMVLPRGVGGVVGAAGAVGGAHVLPLQSQERLFQQRVAAAPGFQNGAQIPNQSMVPQGVPMSHQIRPQSIAGLPQAQPQVPQQLQRPVSAPTGMGVQFVPVCRYEDSQAIRATGFHPSGRYFALGTNSKQLHICLYPDTKRTQSRPMAYEQTKNAEIAVTRPKQHRGSVYCLSFNPNGDLLATGSNDKTIRLMAFNEDSCRIGAEMELTCHDGTVRDLIFIESSINRSTILVSGGAGNCHLNVTDCNTGQLIQSMKGHTAPILGLYTWSQAGNQFVSCSQDKTIRFWDLRQQTAVNVISPGSNKSHNASPVTSVCVDPNGKLLVSGHEDASVALFDIGGNRILQTFRPHGDEVRTVRFSNAAYYLLTASYDKRVVISDMRGDLMAPLMYLPVAEHSDKVVQCRWHPHDFSFLSTSADRSAVLWSLPNR	not soluble
MDPGPWNECVPVRMPDDPQIHMVSNTRQAVELLTKRWPVSHGQAYQAAIDICMAVLERESPAYVARVAFVAAAKEAQVNIVS	not soluble
